Article PMC5155031

What was measured:
Experiment in all cases: dose-dependent binding with Scatchard plot analysis
[1] = target: mIgCLL6-2, CLL-derived monoclonal Igγ1 antibody of clonotype CLL6-2
[2] = target: mIgCLL2-2, CLL-derived monoclonal Igγ1 antibody of clonotype CLL2
[3] = target: mIgCLL5-2, CLL-derived monoclonal Igγ1 antibody of clonotype CLL5-2
[4] = target: mIgCLL6-1, CLL-derived monoclonal Igγ1 antibody of clonotype CLL6-1
[5] = target: mIgCLL5-1, CLL-derived monoclonal Igγ1 antibody of clonotype CLL5-1
[6] = target: mIgCLL3-1, CLL-derived monoclonal Igγ1 antibody of clonotype CLL3
[7] = target: mIgCLL2-1, CLL-derived monoclonal Igγ1 antibody of clonotype CLL2
[8] = target: mIgCLL3-2, CLL-derived monoclonal Igγ1 antibody of clonotype CLL3

B1: pCLL6-2 mimotope (peptide)
peptide: CTTVIPERC
B1 gave a Kd [1] of 22.7 nM.

B2: pCLL2-2 mimotope (peptide)
peptide: CKSYSVSLC
For B2, the Kd [2] was 7.57 nM.

B3: pCLL5-2 mimotope (peptide)
peptide: CPPFTNYEC
In the case of B3, the Kd [3] is reported as 7.32 nM.

B4: pCLL6-1 mimotope (peptide)
peptide: CNQDWHKKC
Work on B4 yielded a Kd [4] of 57.5 nM.

B5: pCLL5-1 mimotope (peptide)
peptide: CFSDDEWWC
B5 was tested, and the Kd [5] was 7.08 nM.

B6: pCLL3-1 mimotope (peptide)
peptide: CPPQSVTEC
In the case of B6, the Kd [6] is reported as 22.1 nM.

B7: pCLL2-1 mimotope (peptide)
peptide: CNTYSVSLC
For B7, the Kd [7] was 10.8 nM.

B8: pCLL3-2 mimotope (peptide)
peptide: CDVWHSAYC
Work on B8 yielded a Kd [8] of 5.64 nM.
